What was measured:
[1] = target: T1, influenza A minimal peptide VPNGTLVKTITNDQI (spotted for dot blot) (Influenza A virus (H3 hemagglutinin …))
T1 chain: VPNGTLVKTITNDQI

[2] = target: T2, influenza A H3 hemagglutinin ectodomain trimer, A/Aichi/02/1968 (Influenza A virus A/Aichi/2/1968 (H3N2, …, UniProt P03437)); test: ELISA; details: both partners purified
T2 construct: source: Expi293, transient transfection, purified (Ni-NTA, SEC)

| Binder | binding result [1] | binding result [2] |
| --- | --- | --- |
| clonotype4582 (Quake) (antibody, V domains shown) VH: EVQLVQSGAEVKKPGESLKISCKASGYTFTNYWIAWVRQMPGKGLEWMGIIFPSDSDTRYSPSFQGQVTISADKSVSTAYLQWSSLKASDTAMYYCARGAATILRGVVTSYNWFDSWGQGTLVTVSS VL: DVVMTQSPDSLAASLGERATINCTSSHNILYNSNNNNYLAWYQQKPGQPPKLLIYWASTRESGVPDRFSGSGSGTDFTLTISSLQAEDVAVYSCQQYFSTPYTFGQGTKLEIK | binds |  |
| clonotype286 (10x_4) (antibody, V domains shown) VH: EVQLVQSGPEVKEPGESLKISCKASGYNFAKYWIAWVRQMPGKGLEWMGIVYPGDSDTRYSPSFQGQVTISADKSLTTAYLQWSSLKASDTAIYYCARGVQDCDSRNCYAYNWFDPWGQGTLVTVSS VL: DIVMTQSPESLAVSLGERATINCKSSHSVFFSSNNKNYLSWYQQKPGQPPKLLIYWASTRQSGVPDRFSGGGSGTDFTLTISSLQAEDVAVYYCQQYYYSPYTFGQGTKLEIK | binds |  |
| flu_c326 (antibody, V domains shown, recombinant human IgG) VH: EVQLVQSGAEVKKPGESLKISCRTSGFTFTRHWIAWVRQMPGKGLEWMGIIYPGDSDVTYNPSFQGQVTISADKSITTAYLQWSSLQASDTAIYFCAKPYNYCNTTTCYTRGYFDFWGRGTLVTVSS VL: DIVMTQSPDSLAVSLGERATINCKSSQSLLYRSDNKNYLAWYQQNPGQPPKLLIYWASIRESGVSDRFSGSGSGTDFTLTINSLQAEDVAVYYCQQYYFTPYTFGQGTKLEIK |  | binds |
| clonotype2760 (Quake) (antibody, V domains shown) VH: EVQLVQSEIEVRKPGESLKISCKGSGYNFATHWIGWVRQMPGKGLEWMGTIYPLDSDTRYSPYFQGQVTISADKSINTAYLQWNSLKASDTAMYYCARVPEGSVVAGEVHFYYYMDVWGKGTAVTVSS VL: DIVMTQSPDSLAVSLGERATINCKSSQSLLYSSNNRNYLAWYQHKPGQPPKLLMYWASTRESGVPDRFSGGGSETDFTLTISSLQAEDVAMYYCQQYYFTPYTFGQGTKLEIK | binds |  |
| clonotype3 (10x_4) (antibody, V domains shown) VH: EVQLVQSGAEVKKPGESLKISCKVSGYSFTTYWIAWVRQMPGKGLEWMGIIYPGDSDTRYSPSFQGQVTISADKSVTTAYLQWGSVKASDTAMYYCARPPHFIDAGGRQTPGYFDLWGQGTLVTVSS VL: DIVMTQSPDSLAVSLGERATINCKSSQTVLFRSNNKNYLAWYQQKPGQPPKLLIYWASTRQSGVPDRFSGSGSGTDFTLTISSLQAEDVALYFCQQYHDSPYTFGQGTKVEIK | binds |  |
| flu_c357 (antibody, V domains shown, recombinant human IgG) VH: EVQLVQSGAEVKKPGESLKISCKTSGFKFTSHWIAWVRQMPGKGLEWMGIIYPGDSDTRYNPSFEGQVTVSADKSINTAYLQWSSLKASDTAMYYCARLPHRESGNVSTTWGWFDPWGQGTLVTISS VL: DIVLTQSPDSLAVSLGERATINCKSSHNVLYISNSKNYLAWYQQKPGQPPKLLIYWASTRESGVPDRFSGSGSGTDFTLTISSLQPEDVAVYYCQQYFSTPYTFGQGTRLEIK |  | binds |
| clonotype473 (10x_4) (antibody, V domains shown) VH: EVQLVQSGAEVKKPGESLRISCKGSGYTFSTHWIGWVRHMPGKGLEWVGVIYPDDSDTRLSPSFQGQVTISADKSTTTAFLWWSSLKASDTATYYCARGVQSCIRNTCSFYGWFDRWGQGTRVTVSS VL: DIVMTQSPDSLAVSLGERATIYCKSSHSLLYSSNNYNYLAWYQQKPGQPPKLLIYWASTRESGVPDRFSGSGSGTDFTLTISSLQAADVAVYYCQQYFYSPYTFGQGTKVEIR | binds |  |

Reference: publication PMC10273302 (Science (New York, N.Y.), 2023)
